Paper PMC5763555

T1: MEX-5 TZF domain (Caenorhabditis elegans, UniProt Q9XUB2 236-350)
T1 sequence: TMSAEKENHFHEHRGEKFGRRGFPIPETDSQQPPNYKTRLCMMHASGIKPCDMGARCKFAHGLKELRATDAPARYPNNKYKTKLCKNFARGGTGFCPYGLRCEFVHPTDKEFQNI


Assays:
Experiment in all cases: EMSA
POS-1 TZF domain = POS-1 TZF domain (Caenorhabditis elegans, UniProt G5EF15 80-180)
POS-1(ZFmut) TZF domain = POS-1(ZFmut) TZF domain (Caenorhabditis elegans, UniProt G5EF15 80-180, F121N;F164N)
MEX-5 TZF domain = target: T1, MEX-5 TZF domain

Sequence of POS-1(ZFmut) TZF domain (G5EF15 80-180 F121N/F164N): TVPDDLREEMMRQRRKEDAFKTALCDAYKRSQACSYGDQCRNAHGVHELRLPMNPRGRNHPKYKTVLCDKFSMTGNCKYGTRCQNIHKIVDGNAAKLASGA
Sequence of POS-1 TZF domain (G5EF15 80-180): as the sequence (G5EF15 80-180 F121N/F164N) above, with N42F, N85F counted along it

Row | Binder | Kd (POS-1 TZF domain) [nM] | Kd (POS-1(ZFmut) TZF domain) [nM] | Kd (MEX-5 TZF domain) [nM]
1 | UUUUUCUUAUUCUAGACUAAUAUUGUAAGCU (ssRNA) [SCR+ (glp-1 3'UTR fragment)] | 26.9 ± 1.8 | > 300 | –
2 | GUGAUUAUUUAUUAUUUAUUUAUUAUUUAUUUAUUAG (ssRNA) [TNF-ARE] | – | – | 11 ± 2
